Source: patent US20120077210A1 (COMMONWEALTH SCIENTIFIC AND INDUSTRIAL RESEARCH ORGANISATION, published 2012)

Molecular target: T1, Odr10 labelled with GFP2 at the C-terminus (C. elegans)
T1 construct: Fusion protein expressed in S. cerevisiae Invsc1; Assayed in living yeast cells (BRET2) and as digitonin-solubilised crude membrane (co-immunoprecipitation); also called odr-10-GFP2; Odr10-GFP2
Experiment: co-immunoprecipitation with anti-GFP antibody from a mixture of solubilised membranes that expressed each fusion separately (control)
Method: Membrane protein solubilisation and immunoprecipitation procedures were modified according to the method described by Ayoub et al. (2002). Crude membrane was solubilised with 0.5% digitonin (Sigma) and this mixture was stirred for 3 h at 4° C. Non-solubilised membrane proteins were removed by centrifugation at 18,000×g for 30 mins at 4° C. The digitonin concentration was adjusted to 0.2% using cold Buffer B and the polyclonal anti-GFP antibodies (Sapphire Bioscience, Cat No 120-29000) were added to a final dilution of 1:1000. Immune complex formation was allowed to proceed for 12 h at 4° C. with gentle agitation and Protein A-agarose suspension (Sigma) was added to a final volume of 1:10 (agarose suspension:sample) for incubation for another 6 h with gentle agitation at 4° C. After centrifugation for 1 min at 5000×g, supernatant was decanted and the agarose beads washed five times with 0.5 ml of cold Buffer C (Buffer B+0.2% digitonin). Precipitates were analysed by assessing luciferase activity in a luminometer (BMGLabtech) using coelenterazine as substrate (Biosynth AG, Switzerland).
Oligomerisation of Odr-10 in the living yeast cells was confirmed by the pairwise expression of receptor-Rluc and -GFP² fusion, followed by precipitation using anti-green fluorescence protein antibodies and measuring co-immunoprecipitated luciferase activity. […]

B1: Odr10 labelled with Rluc at the C-terminus (receptor)
chain: MSGELWITLVDTADIVGVTLTFCVNIVLLGLLKTRGKNLGTYKYLMAFFSVFSIFYAIIEFILRPIMHIENTTFFLISRKRFNYSTKLGKINSAFYCACFATSFVVSGVHFVYRYFATCKPNLLRLFNLPTLLLWPLGCSVPVTMWASVSYFLYPDTEYTEAAVTNVLNNHYNWIKKENVSYIAYVYYQYENGVRHIYLKNLLGCFVHYFVMSMTFVVMFYCGYATWKTMNEHKDVSDRTRALQKQLFKALVLQTLIPTIFMYAPTGVMFIAPFFDVNLNANANFIVFCSFLYPGLDPLILILIIRDFRRTIFNFLCGKKNSVDESRSTTRANLSQVPTMTSKVYDPEQRKRMITGPQWWARCKQMNVLDSFINYYDSEKHAENAVIFLHGNAASSYLWRHVVPHIEPVARCIIPDLIGMGKSGKSGNGSYRLLDHYKYLTAWFELLNLPKKIIFVGHDWGACLAFHYSYEHQDKIKAIVHAESVVDVIESWDEWPDIEEDIALIKSEEGEKMVLENNFFVETMLPSKIMRKLEPEEFAAYLEPFKEKGEVRRPTLSWPREIPLVKGGKPDVVQIVRNYNAYLRASDDLPKMFIESDPGFFSNAIVEGAKKFPNTEFVKVKGLHFSQEDAPDEMGKYIKSFVERVLKNEQ
notes: Fusion protein expressed in S. cerevisiae Invsc1; Assayed in living yeast cells (BRET2) and as digitonin-solubilised crude membrane (co-immunoprecipitation); also called odr-10-Rluc; Odr10-Rluc
- luciferase activity recovered relative to co-expressed odr-10-GFP^2 and odr-10-Rluc: < 20%
